The results in this text go back to paper PMC4895218, “Structural flexibility of the periplasmic protein, FlgA, regulates flagellar P-ring assembly in Salmonella enterica” (Scientific Reports, 2016).

The target in test [1] is T1, N-terminally His-tagged FlgI (Salmonella enterica serovar Typhimurium, UniProt P15930 20-365).
T1 construct: FlgI, flagellar P-ring component protein, Salmonella enterica serovar Typhimurium; Probably without its Sec signal peptide (surmise); also called His-FlgI; source: E. coli Origami2 (DE3), co-expressed, in cell extract (pull-down); purified (SPR); not shown: His tag, N-terminal, kept
T1 sequence (looked up): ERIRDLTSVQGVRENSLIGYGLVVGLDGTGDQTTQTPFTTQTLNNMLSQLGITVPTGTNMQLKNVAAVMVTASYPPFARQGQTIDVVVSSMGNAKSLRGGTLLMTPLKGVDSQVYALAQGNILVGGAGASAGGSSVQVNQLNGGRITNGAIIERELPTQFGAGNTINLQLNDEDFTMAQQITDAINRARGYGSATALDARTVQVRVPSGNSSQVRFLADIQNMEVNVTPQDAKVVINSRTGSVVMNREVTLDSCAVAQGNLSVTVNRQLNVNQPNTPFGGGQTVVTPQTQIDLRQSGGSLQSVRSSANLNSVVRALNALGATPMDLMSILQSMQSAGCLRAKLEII
Kind of test: SPR; Biacore T200, 25 °C; FlgI immobilised on CM5 chip by amine coupling, FlgA or FlgA R113C-S190C as analyte; 10 mM HEPES, 150 mM NaCl, 0.05% Surfactant P20, pH 7.4; two-state reaction model. Particulars: both partners purified.

In test [2] the target is T1, N-terminally His-tagged FlgI. The test is described as follows: SPR; Biacore T200, 25 °C; FlgA or FlgA R113C-S190C immobilised on CM5 chip by amine coupling, FlgI as analyte; 10 mM HEPES, 150 mM NaCl, 0.05% Surfactant P20, pH 7.4; two-state reaction model. The following applies: both partners purified.

B1: FlgA_(R113C-S190C) (purified, histidine tag removed) (natural protein)
chain: QDINAQLTTWFSQRLAGFSDEVVVTLRSSPNLLPSCEQPAFSMTGSAKLWGNVNVVARCANEKRYLQVNVQATGNYVAVAAPIARGGKLTPANVTLKRGRLDQLPPRTVLDICQIQDAVSLRDLAPGQPVQLTMIRQAWRVKAGQRVQVIANGEGFSVNAEGQAMNNAAVAQNARVRMTSGQIVSGTVDCDGNILINL
modifications: engineered disulfide bond between C113 and C190
notes: FlgA, Salmonella enterica serovar Typhimurium, with R113C and S190C; numbers count on: the mature protein; also called covalently closed form of FlgA; source: purified; N-terminal-fused histidine tag removed with thrombin prior to gel filtration; not shown: His tag, N-terminal, cleaved
One may read the Kd as the free concentration of one partner at which half of the binding sites on the other are occupied at equilibrium, for simple one-to-one binding. As to B1, the results for the Kd in test [1] and in test [2] were 106 nM and 166 nM, respectively.

B2: FlgA (purified, histidine tag removed) (natural protein, Salmonella enterica serovar Typhimurium)
chain: QDINAQLTTWFSQRLAGFSDEVVVTLRSSPNLLPSCEQPAFSMTGSAKLWGNVNVVARCANEKRYLQVNVQATGNYVAVAAPIARGGKLTPANVTLKRGRLDQLPPRTVLDIRQIQDAVSLRDLAPGQPVQLTMIRQAWRVKAGQRVQVIANGEGFSVNAEGQAMNNAAVAQNARVRMTSGQIVSGTVDSDGNILINL
notes: FlgA, Salmonella enterica serovar Typhimurium; numbers count on: the mature protein (Q1-L198); The crystallised FlgA was another construct (C-terminal hexa-histidine-tagged precursor purified from the periplasm of E. coli); source: purified; N-terminal-fused histidine tag removed with thrombin prior to gel filtration; not shown: His tag, N-terminal, cleaved
Consider B2, for which the Kd in test [1] came to 126 nM; in test [2] it was 354 nM.
